Test results published in patent US20260167699A1 (Chugai, published 2026).

T1: FcγRIIb extracellular domain, His-tagged (human, UniProt P31994 43-217)
T1 construct: extracellular domain; also called 2b
T1 sequence: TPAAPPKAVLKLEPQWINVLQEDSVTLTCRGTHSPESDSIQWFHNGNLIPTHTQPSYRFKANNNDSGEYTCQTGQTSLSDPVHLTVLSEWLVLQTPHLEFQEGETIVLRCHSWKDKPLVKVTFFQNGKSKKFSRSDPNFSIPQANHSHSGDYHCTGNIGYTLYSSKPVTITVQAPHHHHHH

T2: FcγRIIa(H) extracellular domain, His-tagged (human, UniProt P12318 34-217)
T2 construct: extracellular domain; also called 2aH
T2 sequence: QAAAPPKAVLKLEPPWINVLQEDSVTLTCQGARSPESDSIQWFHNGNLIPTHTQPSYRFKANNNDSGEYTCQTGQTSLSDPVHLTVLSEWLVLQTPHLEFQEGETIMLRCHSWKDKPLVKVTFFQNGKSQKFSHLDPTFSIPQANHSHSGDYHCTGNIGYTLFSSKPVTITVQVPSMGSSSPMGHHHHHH

T3: FcγRIIa(R) extracellular domain, His-tagged (human, UniProt P12318 34-217)
T3 construct: extracellular domain; also called 2aR
T3 sequence: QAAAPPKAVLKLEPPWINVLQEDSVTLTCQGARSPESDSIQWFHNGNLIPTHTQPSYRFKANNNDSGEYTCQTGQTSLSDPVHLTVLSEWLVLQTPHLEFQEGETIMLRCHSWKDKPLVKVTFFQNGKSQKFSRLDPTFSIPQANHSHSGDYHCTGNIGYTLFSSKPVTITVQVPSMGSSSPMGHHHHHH


Tests used:
Assay in all cases: SPR, vs GpH7-A5/GpH7-B3/GpL16-k0 =100
[1] = molecular target: T1, FcγRIIb extracellular domain, His-tagged
[2] = molecular target: T4, FcγRIIIa extracellular domain, His-tagged (human, UniProt P08637 17-208)
T4 construct: extracellular domain; also called 3a
T4 sequence (P08637 other isoform, or with tags, fused parts or gaps): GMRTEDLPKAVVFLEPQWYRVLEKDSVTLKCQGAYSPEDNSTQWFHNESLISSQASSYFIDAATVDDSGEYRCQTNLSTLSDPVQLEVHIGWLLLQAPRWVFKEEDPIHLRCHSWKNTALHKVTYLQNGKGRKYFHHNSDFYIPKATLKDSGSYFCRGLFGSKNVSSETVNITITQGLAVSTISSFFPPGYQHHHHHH

[3] = molecular target: T5, FcγRIa extracellular domain, His-tagged (human, UniProt P12314 16-292)
T5 construct: extracellular domain; also called 1a
T5 sequence (P12314 other isoform, or with tags, fused parts or gaps): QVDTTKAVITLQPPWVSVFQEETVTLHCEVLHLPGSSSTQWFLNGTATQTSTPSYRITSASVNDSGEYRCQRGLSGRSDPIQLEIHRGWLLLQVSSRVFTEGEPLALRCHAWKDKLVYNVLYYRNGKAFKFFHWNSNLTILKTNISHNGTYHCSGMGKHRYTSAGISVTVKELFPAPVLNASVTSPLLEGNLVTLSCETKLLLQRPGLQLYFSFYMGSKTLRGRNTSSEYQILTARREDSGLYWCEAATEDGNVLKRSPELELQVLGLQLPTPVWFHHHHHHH

[4] = molecular target: T2, FcγRIIa(H) extracellular domain, …
[5] = molecular target: T3, FcγRIIa(R) extracellular domain, …

Binder | He/Con 2b [1] | He/Con 3a [2] | He/Con 1a [3] | He/Con 2aH [4] | He/Con 2aR [5]
GpH7-A5/GpH7-B3 variant P238_10E/GpL16-k0 (antibody, human IgG1, kappa) heavy 1: not shown heavy 2: not shown light: DIVMTQSPLSLPVTPGEPASISCQASESLVHSNRNTYLHWYLQKPGQSPQLLIYKVSNRFSGVPDRFSGSGSGTDFTLKISRVEAEDVGVYYCSQNTHVPPTFGQGTKVEIERTVAAPSVFIFPPSDEQLKSGTASVVCLLNNFYPREAKVQWKVDNALQSGNSQESVTEQDSKDSTYSLSSTLTLSKADYEKHKVYACEVTHQGLSSPVTKSFNRGEC | 235 % of control | 98.9 % of control | 105 % of control | 74.6 % of control | 142 % of control
GpH7-A5/GpH7-B3 variant P271_01G/GpL16-k0 (antibody, human IgG1, kappa) heavy 1: not shown heavy 2: not shown light: DIVMTQSPLSLPVTPGEPASISCQASESLVHSNRNTYLHWYLQKPGQSPQLLIYKVSNRFSGVPDRFSGSGSGTDFTLKISRVEAEDVGVYYCSQNTHVPPTFGQGTKVEIERTVAAPSVFIFPPSDEQLKSGTASVVCLLNNFYPREAKVQWKVDNALQSGNSQESVTEQDSKDSTYSLSSTLTLSKADYEKHKVYACEVTHQGLSSPVTKSFNRGEC | 217 % of control | 119 % of control | 103 % of control | 123 % of control | 143 % of control
GpH7-A5/GpH7-B3 variant P238_19Q/GpL16-k0 (antibody, human IgG1, kappa) heavy 1: not shown heavy 2: not shown light: DIVMTQSPLSLPVTPGEPASISCQASESLVHSNRNTYLHWYLQKPGQSPQLLIYKVSNRFSGVPDRFSGSGSGTDFTLKISRVEAEDVGVYYCSQNTHVPPTFGQGTKVEIERTVAAPSVFIFPPSDEQLKSGTASVVCLLNNFYPREAKVQWKVDNALQSGNSQESVTEQDSKDSTYSLSSTLTLSKADYEKHKVYACEVTHQGLSSPVTKSFNRGEC | 112 % of control | 52.7 % of control | 101 % of control | 54.5 % of control | 97.8 % of control
GpH7-A5/GpH7-B3 variant P271_04F/GpL16-k0 (antibody, human IgG1, kappa) heavy 1: not shown heavy 2: not shown light: DIVMTQSPLSLPVTPGEPASISCQASESLVHSNRNTYLHWYLQKPGQSPQLLIYKVSNRFSGVPDRFSGSGSGTDFTLKISRVEAEDVGVYYCSQNTHVPPTFGQGTKVEIERTVAAPSVFIFPPSDEQLKSGTASVVCLLNNFYPREAKVQWKVDNALQSGNSQESVTEQDSKDSTYSLSSTLTLSKADYEKHKVYACEVTHQGLSSPVTKSFNRGEC | 66.7 % of control | 65.6 % of control | 100 % of control | 77.1 % of control | 75.2 % of control

Second part, the binder after the results:

He/Con 2b [1] | He/Con 3a [2] | He/Con 1a [3] | He/Con 2aH [4] | He/Con 2aR [5] | Binder
98.7 % of control | 83.7 % of control | 102 % of control | 88.4 % of control | 93.9 % of control | GpH7-A5/GpH7-B3 variant P271_02A/GpL16-k0 (antibody, human IgG1, kappa) heavy 1: not shown heavy 2: not shown light: DIVMTQSPLSLPVTPGEPASISCQASESLVHSNRNTYLHWYLQKPGQSPQLLIYKVSNRFSGVPDRFSGSGSGTDFTLKISRVEAEDVGVYYCSQNTHVPPTFGQGTKVEIERTVAAPSVFIFPPSDEQLKSGTASVVCLLNNFYPREAKVQWKVDNALQSGNSQESVTEQDSKDSTYSLSSTLTLSKADYEKHKVYACEVTHQGLSSPVTKSFNRGEC
221 % of control | 61 % of control | 104 % of control | 57.8 % of control | 147 % of control | GpH7-A5/GpH7-B3 variant P238_15Y/GpL16-k0 (antibody, human IgG1, kappa) heavy 1: not shown heavy 2: not shown light: DIVMTQSPLSLPVTPGEPASISCQASESLVHSNRNTYLHWYLQKPGQSPQLLIYKVSNRFSGVPDRFSGSGSGTDFTLKISRVEAEDVGVYYCSQNTHVPPTFGQGTKVEIERTVAAPSVFIFPPSDEQLKSGTASVVCLLNNFYPREAKVQWKVDNALQSGNSQESVTEQDSKDSTYSLSSTLTLSKADYEKHKVYACEVTHQGLSSPVTKSFNRGEC
83.8 % of control | 73.5 % of control | 101 % of control | 85.4 % of control | 85.8 % of control | GpH7-A5/GpH7-B3 variant P271_03V/GpL16-k0 (antibody, human IgG1, kappa) heavy 1: not shown heavy 2: not shown light: DIVMTQSPLSLPVTPGEPASISCQASESLVHSNRNTYLHWYLQKPGQSPQLLIYKVSNRFSGVPDRFSGSGSGTDFTLKISRVEAEDVGVYYCSQNTHVPPTFGQGTKVEIERTVAAPSVFIFPPSDEQLKSGTASVVCLLNNFYPREAKVQWKVDNALQSGNSQESVTEQDSKDSTYSLSSTLTLSKADYEKHKVYACEVTHQGLSSPVTKSFNRGEC
